Where “and” joins values, the source holds several entries; their conditions need not be identical. Equal values may be shown once. Where no end group is shown, it is not given here.

The target in one test is T1, human GLP-1 receptor (Homo sapiens, UniProt P43220).
T1 construct: expressed in transfected cells; host or cells: HEK-293 Aurora CRE-BLAM cells
T1 sequence (P43220 24-463): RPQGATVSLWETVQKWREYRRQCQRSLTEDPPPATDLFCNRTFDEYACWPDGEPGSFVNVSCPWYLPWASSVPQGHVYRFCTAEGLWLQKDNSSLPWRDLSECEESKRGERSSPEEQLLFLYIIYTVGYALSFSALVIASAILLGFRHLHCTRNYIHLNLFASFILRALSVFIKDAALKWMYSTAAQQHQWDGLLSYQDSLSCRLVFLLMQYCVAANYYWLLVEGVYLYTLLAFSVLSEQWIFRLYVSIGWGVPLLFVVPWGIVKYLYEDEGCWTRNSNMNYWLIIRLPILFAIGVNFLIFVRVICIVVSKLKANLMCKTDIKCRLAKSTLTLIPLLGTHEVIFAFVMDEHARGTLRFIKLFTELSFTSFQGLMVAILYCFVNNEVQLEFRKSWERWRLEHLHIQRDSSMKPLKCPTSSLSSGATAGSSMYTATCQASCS
The test can be described thus: In vitro potency assay (GLP-1 receptor signaling, CRE-BLAM reporter). Format: cell-based. The note with it: HEK-293 Aurora CRE-BLAM cells expressing the human GLP-1 receptor; EC50-based potency relative to Val^8-GLP-1 (7-37)OH (=1.0); several values in a cell are repeat determinations. An excerpt:
The extent of the induction of cAMP levels can then be measured using a cAMP response element which drives the expression of a reporter gene such as luciferase or beta lactamase.
These HEK-293 cells have stably integrated a DNA vector having a cAMP response element (CRE) driving expression of the β-lactamase (BLAM) gene. […] The assay is further described in Zlokarnik, et al. (1998) Science 279:84-88 (See also Example 3).
The day after seeding, the medium is replaced with plasma free medium.
As to Val^8-Lys^33-Asn^34-GLP-1 (7-37) OH, the “GLP-1 receptor activation relative to Val^8-GLP-1 (7-37) OH” value is given as 0.2.
The same measure, in the same setting: the value for “Val^8-His^37-GLP-1 (7-37) OH (HVEGTFTSDVSSYLEGQAAKEFIAWLVKGRH)” was 0.7 and 1.2; that for “Val^8-Glu^22-Val^25-Ile^33-GLP-1 (7-37) OH (HVEGTFTSDVSSYLEEQAVKEFIAWLIKGRG)” was 4.9 and 5.8 and 6.7; that for “Val^8-Glu^22-Ile^33-GLP-1 (7-37) OH (HVEGTFTSDVSSYLEEQAAKEFIAWLIKGRG)” was 4.7 and 3.8 and 3.4.
Same read-out and setting: in the case of “Val^8-Tyr^16-GLP-1 (7-37) OH (HVEGTFTSDYSSYLEGQAAKEFIAWLVKGRG)” it was 2.6 and 2.5; in that of “Val^8-Glu^30-GLP-1 (7-37) OH (HVEGTFTSDVSSYLEGQAAKEFIEWLVKGRG)”, 0.6 and 0.7.
Same read-out and setting: in the case of “Val^8-Tyr^12-GLP-1 (7-37) OH (HVEGTYTSDVSSYLEGQAAKEFIAWLVKGRG)” it was 1.7 and 1.8.
For “Val^8-Trp^16-Glu^22-GLP-1 (7-37) OH (HVEGTFTSDWSSYLEEQAAKEFIAWLVKGRG)”, the “GLP-1 receptor activation relative to Val^8-GLP-1 (7-37) OH” value is 4.9 and 4.6.
The same measure, in the same setting: the value for “Val^8-Tyr^16-Glu^22-GLP-1 (7-37) OH (HVEGTFTSDYSSYLEEQAAKEFIAWLVKGRG)” was 3.6 and 3.8; that for “Val^8-Glu^22-Val^25-GLP-1 (7-37) OH (HVEGTFTSDVSSYLEEQAVKEFIAWLVKGRG)” was 4.7 and 2.9; that for “Val^8-Tyr^18-Glu^22-GLP-1 (7-37) OH (HVEGTFTSDVSYYLEEQAAKEFIAWLVKGRG)” was 5.1 and 5.9.

The same test, now with this note: in vitro potency relative to Val^8-GLP-1 (7-37)OH.
Exendin-4 [reference compound]: the “potency higher than Val^8-GLP-1 (7-37)OH” value was “approximately 5 fold”.
For the molecule “Val^8-Glu^22-GLP-1 (7-37) OH (HVEGTFTSDVSSYLEEQAAKEFIAWLVKGRG)”, the “potency higher than Val^8-GLP-1 (7-37)OH” value is on record as “approximately 3 fold”.

The next test has as its target human GLP-1 receptor (human, UniProt P43220 24-463). As to the kind of experiment: cell-based or functional assay.
Conditions: not given
With HVEGTFTSDVSSYLEGQAAKEFIAWLKNGRG-OH [Val^8-Lys^33-Asn^34-GLP-1 (7-37) OH], the “GLP-1 receptor activation relative to Val^8-GLP-1 (7-37) OH” value is 0.2 relative to Val^8-GLP-1 (7-37) OH.
On the same count and under the same terms, in the case of HVEGTFTSDVSSYLEEKAAKEFIAWLVKGRG-OH [Val^8-Glu^22-Lys^23-GLP-1 (7-37) OH] it was 3.1 relative to Val^8-GLP-1 (7-37) OH.
The same measure, in the same setting: in the case of HVEGTFTSDVSSYLEGKAAKEFIAWLVKGRG-OH [Val^8-Lys^23-GLP-1 (7-37) OH] it was 0.4 relative to Val^8-GLP-1 (7-37) OH; in that of HVEGTFTSDVSSYLEGQAAKEFIAWLVKHRG-OH [Val^8-His^35-GLP-1 (7-37) OH], 0.9 relative to Val^8-GLP-1 (7-37) OH; in that of HVEGTFTSDVSSYLEGQAAKEFIAWLVKPRG-OH [Val^8-Pro^35-GLP-1 (7-37) OH], 0.2 relative to Val^8-GLP-1 (7-37) OH.
The same measure, in the same setting: the value for HVEGTFTSDVSSYLEGQAAKEFIDWLVKGRG-OH [Val^8-Asp^30-GLP-1 (7-37) OH] was 0.3 relative to Val^8-GLP-1 (7-37) OH.
As to HVEGTFTSDVSSYLEGQAAEEFIAWLVKGRG-OH [Val^8-Glu^26-GLP-1 (7-37) OH], the “GLP-1 receptor activation relative to Val^8-GLP-1 (7-37) OH” value is 3.3 relative to Val^8-GLP-1 (7-37) OH.
On the same count and under the same terms, in the case of HVEGTFTSDLSSYLEGQAAKEFIAWLVKGRG-OH [Val^8-Leu^16-GLP-1 (7-37) OH] it was 1.1 relative to Val^8-GLP-1 (7-37) OH; in that of HVEGTFTSDVSSYLEGQAAKEFIHWLVKGRG-OH [Val^8-His^30-GLP-1 (7-37) OH], 0.4 relative to Val^8-GLP-1 (7-37) OH; in that of HVEGTFTSDLSSYLEGQAAEEFIAWLVKGRG-OH [Val^8-Leu^16-Glu^26-GLP-1 (7-37) OH], 0.5 relative to Val^8-GLP-1 (7-37) OH.
Same read-out and setting: the value for HVEGTFTSDVSSYLEGQAAKEFIAWLVKGHG-OH [Val^8-His^36-GLP-1 (7-37) OH] was 0.5 relative to Val^8-GLP-1 (7-37) OH; that for HVEGTFTSDVSSYLEGQAAKEFISWLVKGRG-OH [Val^8-Ser^30-GLP-1 (7-37) OH] was 0.4 relative to Val^8-GLP-1 (7-37) OH.
The same measure, in the same setting: in the case of HVEGTFTSDVSSYLEGQAAHEFIAWLVKGRG-OH [Val^8-His^26-GLP-1 (7-37) OH] it was 3.5 relative to Val^8-GLP-1 (7-37) OH; in that of HVEGTFTSDVSSYLEGQAAKEFIAWLVKGGP-NH2 [Val^8-Gly^36-Pro^37-GLP-1 (7-37) NH2], 1.2 relative to Val^8-GLP-1 (7-37) OH; in that of HVEGTFTSDVSSYLEKQAAKEFIEWLVKGRG-OH [Val^8-Lys^22-Glu^30-GLP-1 (7-37) OH], 0.8 relative to Val^8-GLP-1 (7-37) OH.
In the case of HVEGTFTSDVSSYLEHQAAKEFIAWLVKGRG-OH [Val^8-His^22-GLP-1 (7-37) OH], the “GLP-1 receptor activation relative to Val^8-GLP-1 (7-37) OH” value was 0.3 relative to Val^8-GLP-1 (7-37) OH.
On the same count and under the same terms, in the case of HVEGTFTSDVSSYLEGQAAKEFIAWLVKGEG-OH [Val^8-Glu^36-GLP-1 (7-37) OH] it was 0.2 relative to Val^8-GLP-1 (7-37) OH; in that of HVEGTFTSDVSSYLEGQAAKHFIAWLVKGRG-OH [Val^8-His^27-GLP-1 (7-37) OH], 0.8 relative to Val^8-GLP-1 (7-37) OH.
The same measure, in the same setting: in the case of HVEGTFTSDVSSYLEGQAAKEFIAWLAKGRG-OH [Val^8-Ala^33-GLP-1 (7-37) OH] it was 0.2 relative to Val^8-GLP-1 (7-37) OH.
On the same count and under the same terms, the value for HVEGTFTSDVSSYLEKEAAKEFIAWLVKGRG-OH [Val^8-Lys^22-Glu^23-GLP-1 (7-37) OH] was 0.8 relative to Val^8-GLP-1 (7-37) OH.
Turning to HVEGTFTSDVSSYLEGQAAKEFIAWLVKERG-OH [Val^8-Glu^35-GLP-1 (7-37) OH], the “GLP-1 receptor activation relative to Val^8-GLP-1 (7-37) OH” value is 0.3 relative to Val^8-GLP-1 (7-37) OH.
Still for that read-out and setting: in the case of HGEGTFTSDVSSYLEGQAAKEFIEWLVKGRG-OH [Gly^8-Glu^30-GLP-1 (7-37) OH] it was 0.6 relative to Val^8-GLP-1 (7-37) OH; in that of HVEGTFTSDVSSYLEGQAAKEFIAWLVGKRG-OH [Val^8-Gly^34-Lys^35-GLP-1 (7-37) OH], 0.7 relative to Val^8-GLP-1 (7-37) OH; in that of HVEGTFTSDVSSYLEGQAAKEFIAWLVEGRG-OH [Val^8-Glu^34-GLP-1 (7-37) OH], 0.4 relative to Val^8-GLP-1 (7-37) OH.
For HVEGTFTSDVSSYLEKQAAKEFIAWLVKGR-NH2 [Val^8-Lys^22-GLP-1 (7-36) NH2], the “GLP-1 receptor activation relative to Val^8-GLP-1 (7-37) OH” value is 1.2 relative to Val^8-GLP-1 (7-37) OH.
Still for that read-out and setting: the value for HVEGTFTSDVSSYLEGQAAKEFIAWLKVGRG-OH [Val^8-Lys^33-Val^34-GLP-1 (7-37) OH] was 0.2 relative to Val^8-GLP-1 (7-37) OH.

(Values after US20040235726A1, “Glucagon-like peptides (glp-1) and treatment of respiratory distress” (priority 2001, published 2004).)
